Experimental data published in PMC11895441.

Molecular target: human complement Factor H (human) (UniProt P08603)
Assay: SPR; Biacore X100 Plus; human FH captured by immobilised anti-FH mAb (Q254) on CM5; refolded NspA as analyte, five 3.16-fold dilutions from 10 µM, single-cycle kinetics; 10 mM HEPES, 150 mM NaCl, 3 mM EDTA, 0.005% P-20, pH 7.4; 1:1 model; apparent KD

UniProt P08603, sequence (P08603 19-1231): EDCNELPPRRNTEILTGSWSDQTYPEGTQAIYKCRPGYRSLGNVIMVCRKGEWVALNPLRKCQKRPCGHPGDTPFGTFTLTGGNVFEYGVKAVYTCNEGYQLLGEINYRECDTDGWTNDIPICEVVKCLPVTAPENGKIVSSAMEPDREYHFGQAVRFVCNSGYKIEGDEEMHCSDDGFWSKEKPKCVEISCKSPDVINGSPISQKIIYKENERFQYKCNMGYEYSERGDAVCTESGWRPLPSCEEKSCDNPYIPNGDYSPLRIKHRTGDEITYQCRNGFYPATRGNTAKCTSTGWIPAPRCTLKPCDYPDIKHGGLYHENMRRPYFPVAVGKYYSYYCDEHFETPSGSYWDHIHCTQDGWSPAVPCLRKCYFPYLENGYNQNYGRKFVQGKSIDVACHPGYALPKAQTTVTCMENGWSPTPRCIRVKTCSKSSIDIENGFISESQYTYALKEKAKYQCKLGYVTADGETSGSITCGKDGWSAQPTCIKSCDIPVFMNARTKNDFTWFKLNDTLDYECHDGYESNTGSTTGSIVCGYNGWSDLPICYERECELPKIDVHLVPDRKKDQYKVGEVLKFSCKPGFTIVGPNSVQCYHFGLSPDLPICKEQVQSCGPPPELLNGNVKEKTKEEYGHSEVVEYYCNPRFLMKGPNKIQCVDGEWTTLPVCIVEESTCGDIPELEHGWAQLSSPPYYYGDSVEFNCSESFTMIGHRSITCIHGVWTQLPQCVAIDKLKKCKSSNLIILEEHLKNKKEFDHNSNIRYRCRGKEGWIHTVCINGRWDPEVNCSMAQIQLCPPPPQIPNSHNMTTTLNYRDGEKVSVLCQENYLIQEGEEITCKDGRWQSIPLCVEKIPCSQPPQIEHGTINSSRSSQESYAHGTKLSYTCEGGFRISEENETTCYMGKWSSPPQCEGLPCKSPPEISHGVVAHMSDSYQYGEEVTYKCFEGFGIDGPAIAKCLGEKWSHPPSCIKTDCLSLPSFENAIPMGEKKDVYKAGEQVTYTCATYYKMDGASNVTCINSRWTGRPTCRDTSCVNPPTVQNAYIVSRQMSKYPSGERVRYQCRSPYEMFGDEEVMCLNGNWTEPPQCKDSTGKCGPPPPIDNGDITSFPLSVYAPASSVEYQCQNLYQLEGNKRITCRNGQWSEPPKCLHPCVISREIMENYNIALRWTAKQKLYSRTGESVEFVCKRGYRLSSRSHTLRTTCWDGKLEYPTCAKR

With “purified, refolded NspA from N. meningitidis strain 8047, wild type, without signal sequence (natural protein)” the Kd was 0.0248 µM, the koff was 0.000608 s⁻¹ and the kon was 25100 M⁻¹ s⁻¹.
